Target: T1, GFP-tagged NFR5 (LjNFR5-sfGFP) (Lotus japonicus)
T1 construct: Full-length receptor with C-terminal sfGFP; In the co-IP it was expressed from pLjUbi in N. benthamiana leaves and extracted with detergent; In nodulation assays it was expressed from the native Nfr5 promoter in roots; also called NFR5-GFP
Test: co-immunoprecipitation (RFP-Trap) from N. benthamiana leaf extracts, anti-GFP and anti-mCherry immunoblot (FIG. 1J)
Method: The assay was performed as in Arora et al. (The Plant Cell 34, 7, 2806 (2022)). In short, N. benthamiana leaves were crushed to a powder in liquid nitrogen using a mortar and pestle, then incubated for 1 hour at 4° C. on a rotor in buffer containing 50 mM Tris-HCl (pH 7.5), 150 mM NaCl, 10% (v/v) glycerol, 2 mM EDTA, 5 mM DTT, 1 mM phenylmethylsulfonyl fluoride, Protease Inhibitor Cocktail (Sigma-Aldrich), and 1% (v/v) IGEPAL® CA-630 (Alfa Aesar) in a ratio of 2 mL/g tissue. Extracts were centrifuged at 4° C. and 4700 rpm for 30 minutes. Supernatants were directly incubated with RFP-Trap® Magnetic Agarose beads (ChromoTek®) overnight at 4° C. The beads were washed five times in buffer containing 50 mM Tris-HCl (pH 7.5), 150 mM NaCl, 10% (v/v) glycerol, 2 mM EDTA, Protease Inhibitor Cocktail (Sigma-Aldrich), and 0.5% (v/v) IGEPAL® CA-630 (Alfa Aesar) on ice. To release the proteins, 50 μL of SDS sample buffer (25 mM Tris-HCl, pH 6.8, 10% glycerol, 2% SDS, 0.2% 2-mercaptoethanol, 0.6 mg/mL Bromophenol blue) was added and samples were heated for 5 minutes at 95° C.
Proteins were separated on 12% SDS-polyacrylamide gels at 120 V for 3 h. Blotting to PVDF membranes (Merck) was done by wet transfer for 2 hours at 90 V. Membranes were blocked with 5% milk for 1 hour. […] Chemiluminescence was detected on a G-BOX (Syngene) using ECL Prime Western Blotting Detection Reagent (Cytiva).

T1 sequence (chain, as listed by the source limits assumed): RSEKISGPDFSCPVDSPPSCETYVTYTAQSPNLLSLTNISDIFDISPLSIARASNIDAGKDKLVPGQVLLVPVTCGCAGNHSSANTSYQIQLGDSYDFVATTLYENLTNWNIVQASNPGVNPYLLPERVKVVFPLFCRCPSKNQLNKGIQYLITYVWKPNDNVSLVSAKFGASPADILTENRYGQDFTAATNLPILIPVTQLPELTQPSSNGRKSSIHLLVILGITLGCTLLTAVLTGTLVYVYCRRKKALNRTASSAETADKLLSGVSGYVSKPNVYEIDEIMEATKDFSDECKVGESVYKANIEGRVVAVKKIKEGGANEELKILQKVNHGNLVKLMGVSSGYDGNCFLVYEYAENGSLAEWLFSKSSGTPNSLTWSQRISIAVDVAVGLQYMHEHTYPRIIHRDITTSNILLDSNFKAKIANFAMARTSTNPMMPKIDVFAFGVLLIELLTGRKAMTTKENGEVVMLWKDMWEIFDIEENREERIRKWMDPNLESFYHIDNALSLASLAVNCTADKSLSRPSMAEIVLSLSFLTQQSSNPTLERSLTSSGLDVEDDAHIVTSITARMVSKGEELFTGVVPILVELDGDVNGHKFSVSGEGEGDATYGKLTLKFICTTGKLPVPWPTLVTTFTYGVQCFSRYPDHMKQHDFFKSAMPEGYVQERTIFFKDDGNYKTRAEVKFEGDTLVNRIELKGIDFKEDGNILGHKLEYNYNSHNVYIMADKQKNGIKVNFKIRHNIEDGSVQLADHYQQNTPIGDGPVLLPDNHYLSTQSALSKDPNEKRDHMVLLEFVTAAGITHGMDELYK

B1: VHHLaG16m-tagged mCherry (mCherry_20linker_mutNbsfGFP-HA) (VHH)
VHH: QVQLVESGGRLVQAGDSLRLSCAASGRTWSTSAMAWFRQAPGREREFVAAITWWVGNTILGDSVKGRFTISRDRAKNTVDLQMDNLEPEDTAVYYCSARSRWYVLSVLRSVDSYDYWGQGTQVTVSS
notes: Construct EC32015, expressed in N. benthamiana leaves; LaG16 was engineered to carry three bulky tryptophan residues in the paratope; also called mCherry mutNb; mutated LaG16; not shown: mCherry red fluorescent protein (engineered); 20-residue linker ('20linker'); HA tag
B1: no binding.
